The Kd is the constant that tells how readily two partners part at equilibrium. A higher Kd goes with weaker binding.

The target of assay [1] is CRY1 photolyase homology region (PHR), residues 1-491 (human) (UniProt Q16526). In words: fluorescence polarisation.
The target of assay [2] is T1, CRY1 photolyase homology region (PHR), residues 1-491 (human, UniProt Q16526 1-491).
T1 sequence (looked up): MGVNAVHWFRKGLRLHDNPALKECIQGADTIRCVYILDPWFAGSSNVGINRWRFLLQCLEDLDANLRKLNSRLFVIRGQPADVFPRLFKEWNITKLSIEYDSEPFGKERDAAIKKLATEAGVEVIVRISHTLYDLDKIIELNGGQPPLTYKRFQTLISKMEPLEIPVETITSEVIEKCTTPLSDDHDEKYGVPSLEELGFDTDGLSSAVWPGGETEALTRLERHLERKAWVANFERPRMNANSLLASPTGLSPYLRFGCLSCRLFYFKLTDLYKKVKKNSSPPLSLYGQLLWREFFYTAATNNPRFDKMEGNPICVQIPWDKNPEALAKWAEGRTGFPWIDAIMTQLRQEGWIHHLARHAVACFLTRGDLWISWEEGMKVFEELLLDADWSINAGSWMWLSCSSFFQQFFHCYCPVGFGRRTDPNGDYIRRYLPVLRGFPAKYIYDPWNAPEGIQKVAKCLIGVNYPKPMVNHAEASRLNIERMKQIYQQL
In words: fluorescence polarisation. On the technique in general: Polarisation of emitted light reports the rotation of a fluorescent probe.

“Δ11 version of the human CRY1 tail (from UniProt Q16526 492-586) (domain or fragment)” gave a fold lower affinity than the hCRY1 tail in assay [1] of 4 fold.

B1: human CRY1 tail (residues 492-586) (domain or fragment, UniProt Q16526 492-586, looked up)
chain: SRYRGLGLLASVPSNPNGNGGFMGYSAENIPGCSSSGSCSQGSGILHYAHGDSQQTHLLKQGRSSMGTGLSGGKRPSQEEDTQSIGPKVQRQSTN
modifications: fluorescein (FAM) on the N-terminus in the FP binding assays
The molecule B1 yielded a Kd in assay [2] of around 5 µM.

Source of the values: publication doi:10.1101/758714 (bioRxiv, 2019).
